From patent US20060063917A1, “Selection of peptide ligands specific for baculovirus DNA-binding protein from the FliTrxTM random peptide display library” (Vista Biologicals Corporation, priority 2004, published 2006)
No end group written: not given here.

T1: His.Tag AcNPV DBP (Autographa californica nuclear polyhedrosis virus, UniProt P41430)
T1 construct: made in house; host or cells: E. coli BL21 (DE3)
T1 sequence (P41430 whole entry, looked up): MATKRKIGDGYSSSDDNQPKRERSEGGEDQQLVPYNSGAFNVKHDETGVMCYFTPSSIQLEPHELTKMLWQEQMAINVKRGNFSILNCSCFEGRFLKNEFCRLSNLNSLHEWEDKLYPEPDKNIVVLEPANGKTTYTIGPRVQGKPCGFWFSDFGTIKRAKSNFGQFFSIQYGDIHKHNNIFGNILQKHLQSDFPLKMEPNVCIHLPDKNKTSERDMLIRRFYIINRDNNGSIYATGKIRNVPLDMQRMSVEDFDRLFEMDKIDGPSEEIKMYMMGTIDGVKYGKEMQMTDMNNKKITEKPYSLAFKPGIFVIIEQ


Each molecule was assayed against T1, His.Tag AcNPV DBP (assay: ELISA for His.Tag AcNPV DBP screening using the FliTrx protein solution). Details: wells coated with FliTrx protein solution of positive clones; 6 μg His.Tag AcNPV DBP added; mean of duplicate; mean O.D. of negative controls 0.14.
Type: binding, Autographa californica nucleopolyhedrovirus (AcNPV)
Experimental: (§1) ELISA Protocols for His.Tag AcNPV DBP Screening
(§2) ELISA procedure was used for analysis of His.Tag AcNPV DBP as a target. The polystyrene microtitration plates (PolySorp™ Surface, Immuno™ Plate, Nunc) were used as the solid phase for the assay. All washes were performed four times with phosphate-buffered saline (PBS) containing 0.05% (V/V) Tween® 20 (PBS-T). The substrate solution for alkaline phosphatase (p-nitrophenyl phosphate, pNPP, 1 mg/ml, in 0.2 M Tris-HCl buffer, pH 7) was from Sigma, St. Louis, Mo. The reaction was stopped by the addition of 3 M NaOH (50 μl per well). The optical density at 405 nm (O.D.λ=405 nm) was measured in a microplate colorimeter (Molecular Devices, Thermo max Microplate Reader).
1. Using the FliTrx™ Protein Solution
Wells of the microtitration plates were coated with the FliTrx™ protein solutions obtained from induced culture cell of positive clones that contain the peptides recognized by His.Tag AcNPV DBP (50 μl per well). To account for plate binders, empty plates were used as negative controls. After incubation overnight at +4° C., the plates were washed, and the uncoated attachment sites on the plates were saturated by incubation for 1 hour at 37° C. with a solution of 2% nonfat dry milk in PBS-T: PBS-T-M (200 μl per well). The plates were then washed, and an aliquot of 100 μl (6 μg) of the purified His.Tag AcNPV DBP was added to both the target plate and the control plate. Plates were incubated for. 1 hour at 37° C. The plates were then washed, and 100 μl of a 1:1,000 dilution of mouse monoclonal Ig G1 antibody to penta-His™ (QIAGEN, Valencia, Calif.) in PBS-T-M were added. After being incubated again for 1 hour at 37° C., the plates were washed, and 100 μl of a 1:1,000 dilution of goat anti-mouse IgG conjugated to alkaline phosphatase (Bio-Rad Laboratories, Hercules, Calif.) were added. After being incubated again for 1 hour at 37° C., the plates were washed, and substrate solution (200 [l per well) was added. After incubation for 1 hour at 37° C., the reaction was stopped.

Molecule	ELISA (O.D. λ = 405 nm), affinity for His.Tag AcNPV DBP
GGGGRRSGGACP (baculovirus) [Peptide ligand No. 4, FliTrx selected dodecapeptide ligand recognized by His.Tag AcNPV DBP]	1.13
ADYGKGLRRAMG (baculovirus) [Peptide ligand No. 3, FliTrx selected dodecapeptide ligand recognized by His.Tag AcNPV DBP]	1.11
AGRKGERGSVLQ (baculovirus) [Peptide ligand No. 1, FliTrx selected dodecapeptide ligand recognized by His.Tag AcNPV DBP]	1.21
PAQAQTRRRRPR (baculovirus) [Peptide ligand No. 5, FliTrx selected dodecapeptide ligand recognized by His.Tag AcNPV DBP]	1.35
AMLRAACVVRSM (baculovirus) [Peptide ligand No. 2, FliTrx selected dodecapeptide ligand recognized by His.Tag AcNPV DBP]	0.56

Each molecule was assayed against T1, His.Tag AcNPV DBP (assay: ELISA for His.Tag AcNPV DBP screening using the biotinylated synthesized peptide ligand). Details: wells coated with 2 μg His.Tag AcNPV DBP; 25 μg biotinylated peptide added; negative control (empty) plate gave 0.30.
Type: binding, Autographa californica nucleopolyhedrovirus (AcNPV)
Experimental: as §1, §2
2. Using the Biotinylated Synthesized Peptide Ligand
Wells of the microtitration plates were coated with 50 μl (2 μg) of purified His.Tag AcNPV DBP. To account for plate binders, empty plates were used as negative controls. After incubation overnight at +4° C., the plates were washed, and the uncoated attachment sites on the plates were saturated by incubation for 1 hour at 37° C. with PBS-T-M (200 μl per well). The plates were then washed, and an aliquot of 100 μl (25 μg) of the biotinylated synthesized peptide ligand No. 4 (SEQ ID NO. 6) (Invitrogen, Carlsbad, Calif.) was added to both the target plate and the control plate. Plates were incubated for 1 hour at 37° C. […]

Molecule	mean O.D. value, target plate
biotinylated synthesized peptide ligand No. 4: biotinylated synthesized peptide ligand No. 4 (SEQ ID NO. 6), GGGGRRSGGACP (also: biotinylated)	about 4.0

The molecules below were run against recombinant His.Tag AcNPV DBP (Autographa californica nucleopolyhedrovirus DNA-binding protein) (Autographa californica nucleopolyhedrovirus (AcNPV)) (assay: ELISA: 2 ug His.Tag AcNPV DBP coated, 25 ug biotinylated peptide added, detected with anti-biotin BN-34-AP; empty negative control plate 0.30). Details: not given.

Molecule	mean O.D. (405 nm)
GGGGRRSGGACP (also: biotinylated, position not given here) [biotinylated synthesized peptide ligand No. 4 (SEQ ID NO. 6)]	4 O.D.

Each molecule was assayed against recombinant His.Tag AcNPV DBP (Autographa californica nucleopolyhedrovirus DNA-binding protein) (Autographa californica nucleopolyhedrovirus (AcNPV)) (assay: ELISA: FliTrx protein solution coated, 6 ug His.Tag AcNPV DBP added, detected with anti-penta-His and goat anti-mouse IgG-AP; mean of duplicate; negative controls (empty plates) 0.14). Details: not given.

Molecule	ELISA (O.D. λ = 405 nm) (O.D. λ = 405 nm)
GGGGRRSGGACP (peptide, part only; not given: FliTrx scaffold, part only, also: inserted in thioredoxin active-site loop of FliTrx fusion protein) [FliTrx selected peptide ligand No. 4 (…), as FliTrx protein solution]	1.13
ADYGKGLRRAMG (peptide, part only; not given: FliTrx scaffold, part only, also: inserted in thioredoxin active-site loop of FliTrx fusion protein) [FliTrx selected peptide ligand No. 3 (…), as FliTrx protein solution]	1.11
AMLRAACVVRSM (peptide, part only; not given: FliTrx scaffold, part only, also: inserted in thioredoxin active-site loop of FliTrx fusion protein) [FliTrx selected peptide ligand No. 2 (…), as FliTrx protein solution]	0.56
PAQAQTRRRRPR (peptide, part only; not given: FliTrx scaffold, part only, also: inserted in thioredoxin active-site loop of FliTrx fusion protein) [FliTrx selected peptide ligand No. 5 (…), as FliTrx protein solution]	1.35
AGRKGERGSVLQ (peptide, part only; not given: FliTrx scaffold, part only, also: inserted in thioredoxin active-site loop of FliTrx fusion protein) [FliTrx selected peptide ligand No. 1 (…), as FliTrx protein solution]	1.21
